These results are taken from publication PMC11633381, “Acarbose impairs gut Bacteroides growth by targeting intracellular glucosidases” (mBio, 2024).

The assay deals with BoGH13BSus (BoSusA), periplasmic GH13 neopullulanase of the Bacteroides ovatus Sus (Bacteroides ovatus). Description: SEC; 0.5 mL of 10.6 mg/mL BoSusA or 8.2 mg/mL SusA on HiPrep 16/60 Sephacryl S-200 HR, 20 mM HEPES, 100 mM NaCl, pH 7.0, 0.5 mL/min; compared with BioRad gel filtration standards.

For “BoGH13BSus (BoSusA), periplasmic GH13 neopullulanase of the Bacteroides ovatus Sus (enzyme)”, the stoichiometry N is 2.
